B1: P84A E102A S103T E110A V138D: Gaussia luciferase mutant (protein)
chain: MGVKVLFALICIAVAEAKPTENNEDFNIVAVASNFATTDLDADRGKLPGKKLPLEVLKEMEANARKAGCTRGCLICLSHIKCTAKMKKFIPGRCHTYEGDKATAQGGIGAAIVDIPEIPGFKDLEPMEQFIAQVDLCDDCTTGCLKGLANVQCSDLLKKWLPQRCATFASKIQGQVDKIKGAGGD
modifications: SIGNAL (1)..(17)
notes: Gaussia luciferase mutant
B2: P84A E102S S103T A104G E110A L124M V138E: Gaussia luciferase mutant (protein)
chain: MGVKVLFALICIAVAEAKPTENNEDFNIVAVASNFATTDLDADRGKLPGKKLPLEVLKEMEANARKAGCTRGCLICLSHIKCTAKMKKFIPGRCHTYEGDKSTGQGGIGAAIVDIPEIPGFKDMEPMEQFIAQVDLCEDCTTGCLKGLANVQCSDLLKKWLPQRCATFASKIQGQVDKIKGAGGD
modifications: SIGNAL (1)..(17)
notes: Gaussia luciferase mutant
B3: N27D V29S V31L A32V S33G A36N T37D L40R: Gaussia luciferase mutant (protein)
chain: MGVKVLFALICIAVAEAKPTENNEDFDISALVGNFNDTDRDADRGKLPGKKLPLEVLKEMEANARKAGCTRGCLICLSHIKCTPKMKKFIPGRCHTYEGDKESAQGGIGEAIVDIPEIPGFKDLEPMEQFIAQVDLCVDCTTGCLKGLANVQCSDLLKKWLPQRCATFASKIQGQVDKIKGAGGD
modifications: SIGNAL (1)..(17)
notes: Gaussia luciferase mutant
B4: A42G Q152K S170S G174N Q175E K178S A182Y G183A: Gaussia luciferase mutant (protein)
chain: MGVKVLFALICIAVAEAKPTENNEDFNIVAVASNFATTDLDGDRGKLPGKKLPLEVLKEMEANARKAGCTRGCLICLSHIKCTPKMKKFIPGRCHTYEGDKESAQGGIGEAIVDIPEIPGFKDLEPMEQFIAQVDLCVDCTTGCLKGLANVKCSDLLKKWLPQRCATFASKIQNEVDSIKGYAGD
modifications: SIGNAL (1)..(17)
notes: Gaussia luciferase mutant
B5: Q152H Q163D T167S S170N A182L G183A: Gaussia luciferase mutant (protein)
chain: MGVKVLFALICIAVAEAKPTENNEDFNIVAVASNFATTDLDADRGKLPGKKLPLEVLKEMEANARKAGCTRGCLICLSHIKCTPKMKKFIPGRCHTYEGDKESAQGGIGEAIVDIPEIPGFKDLEPMEQFIAQVDLCVDCTTGCLKGLANVHCSDLLKKWLPDRCASFANKIQGQVDKIKGLAGD
modifications: SIGNAL (1)..(17)
notes: Gaussia luciferase mutant
B6: Q152H Q163S T167G S170V G174N G183A: Gaussia luciferase mutant (protein)
chain: MGVKVLFALICIAVAEAKPTENNEDFNIVAVASNFATTDLDADRGKLPGKKLPLEVLKEMEANARKAGCTRGCLICLSHIKCTPKMKKFIPGRCHTYEGDKESAQGGIGEAIVDIPEIPGFKDLEPMEQFIAQVDLCVDCTTGCLKGLANVHCSDLLKKWLPSRCAGFAVKIQNQVDKIKGAAGD
modifications: SIGNAL (1)..(17)
notes: Gaussia luciferase mutant

Legend:
[1] = Luminescence activity assay of purified Gaussia luciferase mutants on coelenterazine derivative ZS2; type: biochemical; set-up: key to Activity of mutant relative to wild-type Gaussia luciferase without the signal peptide: ratio of mutant luminescence intensity to wild-type Gaussia luciferase; conditions: Substrate ZS2 (Table 16)
Procedure: (§1) In this Example, the protein concentration was determined with a BCA quantitative kit (Thermo Scientific™ Pierce™ BCA Protein Assay Kit) accurately. The purified luciferase obtained in Example 5 was diluted with diluent (50 mM Tris-HCl, pH 8.0, 100 mM NaCl, 0.1% (v/v) Tween-20) to 1 μg/mL. The diluted luciferase, taken for 10 μL, was moved into a black 96-well plate, then added with 90 μL of the substrates coelenterazine, fluoro-coelenterazine or coelenterazine derivative ZS2 (purchased from Biolab) which was diluted into 100 μM with the same diluent, and the luminescence intensity of the plate was read with a self-luminescence module of a microplate reader. The mutation site of the mutant, the measured luminescence intensity, the ratio of luminescence intensities of the advantageous mutants to the wild-type Gaussia luciferase without the signal peptide having the sequence shown in SEQ ID NO: 3 are shown in Table 15. The results of catalytic activity assay of the advantageous mutants relative to the wild-type Gaussia luciferase without the signal peptide having the sequence shown in SEQ ID NO: 3 on substrate coelenterazine are shown in FIG. 6. […] The results of catalytic activity assay of the advantageous mutants relative to the wild-type Gaussia luciferase without the signal peptide having the sequence shown in SEQ ID NO: 3 on substrate fluoro-coelenterazine are shown in FIG. 7.
(§2) The new mutant library constructed in Example 7 was screened and tested for substrate specificity. Expression and purification schemes were the same as that in Example 5, and the activity assay scheme was the same as that in Example 6. The respective catalytic activities of combinatorial mutants on coelenterazine, fluoro-coelenterazine or coelenterazine derivative ZS2, and coelenterazine derivative ZS26 (purchased from BIOLAB) were assayed, and comparisons among the substrate specificities of the combinatorial mutants were based on the ratios of catalytic activities on two corresponding substrates.

[2] = Luminescence activity assay of purified Gaussia luciferase mutants on coelenterazine; type: biochemical; set-up: key to Activity of mutant relative to wild-type Gaussia luciferase without the signal peptide: ratio of mutant luminescence intensity to wild-type Gaussia luciferase; conditions: Substrate CTZ (Table 16)
Procedure: as §1, §2

Molecule | Activity of mutant relative to wild-type Gaussia luciferase without the signal peptide [1] | Activity of mutant relative to wild-type Gaussia luciferase without the signal peptide [2]
B1 | 4.252 | 0.174
B2 | 4.457 | 0.375
B3 | 0.146 | 0.981
B4 | 1.751 | 0.736
B5 | 0.698 | 1.197
B6 | 0.064 | 0.006

— patent publication US20250066745A1, “MUTANTS AND USE THEREOF” (BGI SHENZHEN, priority 2021, published 2025)
